Here are results for four molecules from patent publication US7597894B2, “Compositions and methods employing alternative reading frame polypeptides for the treatment of cancer and infectious disease” (Dendreon Corporation, priority 2003, dated 2009).

The test system of experiment [1] is hHER-2/EL4 (E.HER2) tumor cells. As to the kind of experiment: Survival after hHER-2/EL4 (E.HER2) tumor challenge of mice pre-immunized with antigen-pulsed dendritic cells. The format is in vivo, mouse. The following applies: C57BL/6 mice pre-immunized i.p. with antigen-pulsed activated DC, challenged i.p. with hHER-2/EL4 (E.HER2) cells. The protocol:
(§1) The hHER-2/E14 tumor cell line was generated by transfecting the mouse EL4 thymoma cell line (ATCC No. TIB-39, Rockville, Md.) with full-length human HER-2 cDNA cloned into the MIRB vector. The hHER-2/B16 tumor cell line was generated by transfecting the mouse B16 melanoma cell line (ATCC No. CRL-6322, Rockville, Md.) with full-length human HER-2 cDNA cloned into the pCR3.1 vector.
(§2) Enriched activated dendritic cells (DCs) were prepared as described (Laus et al., Nature Biotechnology 18:1269-1272 (2000)). Briefly, enriched preparations of activated DC were prepared by incubating female C57BL/6 spleen cells in tissue culture flasks for 2 h at 37° C., removing non-adherent cells, and subsequently culturing the remaining adherent cells for two days in the presence of 1 μM ionomycin (Sigma, St. Louis, Mo.). DC obtained in this manner were pulsed by sixteen hour co-culture with each of the indicated HER-2 ARF polypeptide pools or HER-2 fusion proteins in 1 μM ionomycin, washed two times and injected intraperitoneally (i.p.) into the C57BL/6 mice (2.5×10^5 cells per mouse). Two weeks after the last immunization, mice were challenged with a single i.p. injection of hHER-2/EL4 cells or hHER-2/B 16 cells in 0.1 ml PBS. Mice were monitored daily and their survival recorded.
The effect of pre-immunization with HER-2-ARF polypeptide-pulsed activated DC on suppression of in vivo growth of HER-2-expressing autologous tumors was evaluated in a mouse animal model system. The results of two independent experiments using hHER-2/EL4 cells are shown in FIGS. 1A and 1B, respectively. The results of two independent experiments using hHER-2/B 16 tumor cells are shown in FIGS. 2A and 2B, respectively.

In experiment [2] the test system is CD8 T cell hybridoma B6-H9.B7. As to the kind of experiment: T cell hybridoma assay (stimulation of CD8 T cell hybridoma B6-H9.B7 by Ag-pulsed cells). The format is cell-based, mouse. Particulars: untransfected EL-4 tumor cells pre-pulsed with the peptide as stimulators. The protocol:
CD8 T cell hybridoma B6-H9.B7, specific for the protective Arf peptide 3h, was isolated from mice immunized with HER-2-derived Arf pool B peptides. FIG. 8D. This hybridoma was stimulated by untransfected EL-4 tumor cells pre-pulsed with the peptide 3h as well as an E.HER2 tumor transfectant in the absence of any externally added Arf peptide.
Arf epitope-specific MHC class I-dependent CD8^+ T cell hybridoma B6.H9-B7 was obtained by fusing thymoma cell line BWZ.36CD8 with splenocytes of mice immunized with HER-2-derived Arf pool B3 peptides. Sanderson et al., Int. Immunol. 6:369-376 (1994). The T cell hybridoma assay was performed as described previously. Karttunen et al., Proc. Natl. Acad. Sci. USA. 88:3972-3976 (1991). Briefly, 10^5 hybridoma cells were incubated in 0.2 ml micro-wells with designated washed Ag-pulsed APC. Stimulation of B6.H9-B7 was visualized after incubation with chlorophenol red B-galactoside (expressed in relative light units). FIG. 8E.

The test system of experiment [3] is mPAP/B16 (B16.mPAP) tumor cells. As to the kind of experiment: Survival after challenge with B16 cells expressing an irrelevant antigen (mouse PAP). The experiment is classed as in vivo. The following applies: C57BL/6 mice pre-immunized with antigen-pulsed DC, challenged with B16 cells expressing irrelevant antigen mouse PAP.
Experiment [4] has as its system hHER-2/B16 (B16.HER2) tumor cells. Briefly: Survival after hHER-2/B16 tumor challenge of mice pre-immunized with antigen-pulsed dendritic cells. The following applies: C57BL/6 mice pre-immunized with antigen-pulsed DC, challenged with hHER-2/B16 cells. The experiment is classed as in vivo, mouse. The protocol: as §1
as §2, with “Two weeks after the last immunization, mice were challenged with a single i.p. injection of hHER-2/EL4 cells or hHER-2/B 16 cells in 0.1 ml PBS.” left out
The effect of pre-immunization with HER-2-ARF polypeptide-pulsed activated DC on suppression of in vivo growth of HER-2-expressing autologous tumors was evaluated in a mouse animal model system. […]

Consider “VHRHRHEAAAPCQSR (Made in a lab from synthetic material) [3g]”, for which, in experiment [1], the “protection against tumor challenge / survival (prevention of in vivo tumor growth)” value is recorded as “strong protective capabilities”.
As for “RHEAAAPCQSRDPPG (Made in a lab from synthetic material) [3h]”, in experiment [1], the “protection against tumor challenge / survival (prevention of in vivo tumor growth)” value is on record as “strong protective capabilities”. Besides, the “stimulation of CD8 T cell hybridoma B6-H9.B7” value in experiment [2] is “stimulated”.

B1: HER300: recombinant fusion protein with 289 amino acids of HER-2 membrane distal extracellular domain and OVA257-264; negative control (protein, listed as Homo sapiens)
chain: MRAAPLLLARAASLSLGFLFLLFFWLDRSVLAKELARGAASTQVCTGTDMKLRLPASPETHLDMLRHLYQGCQVVQGNLELTYLPTNASLSFLQDIQEVQGYVLIAHNQVRQVPLQRLRIVRGTQLFEDNYALAVLDNGDPLNNTTPVTGASPGGLRELQLRSLTEILKGGVLIQRNPQLCYQDTILWKDIFHKNNQLALTLIDTNRSRACHPCSPMCKGSRCWGESSEDCQSLTRTVCAGGCARCKGPLPTDCCHEQCAAGCTGPKHSDCLACLHFNHSGICELHCPALVTYNTDTFESMPNPEGRYTFGASCVTACPYNYLSTDVGSASIINFEKLAAPTRSPNPVTRPWKHVDAIKEALSLLNDMRALENEKNEDVDIISNEFSIQRPTCVQTRLKLYKQGLRGNLTKLNGALTMIASHYQTNCPPTPETDCEIEVTTFEDFIKNLKGFLFDIPFDCWKPVQKGAPPPPAHHHHHH
Regarding B1, the “protection against tumor challenge / survival (prevention of in vivo tumor growth)” value in experiment [1] was “had little effect”.

B2: HER500rGM-CSF: recombinant fusion protein of hHER-2 extracellular and intracellular domain sequences, OVA octapeptide and rat GM-CSF; positive control (protein, listed as Homo sapiens)
chain: MRAAPLLLARAASLSLGFLFLLFFWLDRSVLAKELARGAASTQVCTGTDMKLRLPASPETHLDMLRHLYQGCQVVQGNLELTYLPTNASLSFLQDIQEVQGYVLIAHNQVRQVPLQRLRIVRGTQLFEDNYALAVLDNGDPLNNTTPVTGASPGGLRELQLRSLTEILKGGVLIQRNPQLCYQDTILWKDIFHKNNQLALTLIDTNRSRACHPCSPMCKGSRCWGESSEDCQSLTRTVCAGGCARCKGPLPTDCCHEQCAAGCTGPKHSDCLACLHFNHSGICELHCPALVTYNTDTFESMPNPEGRYTFGASCVTACPYNYLSTDVGSASIINFEKLGAGGMVHHRHRSSSTRSGGGDLTLGLEPSEEEAPRSPLAPSEGAGSDVFDGDLGMGAAKGLQSLPTHDPSPLQRYSEDPTVPLPSETDGYVAPLTCSPQPEYVNQPDVRPQPPSPREGPLPAARPAGATLERAKTLSPGKNGVVKDVFAFGGAVENPEYLTPQGGAAPQPHPPPAFSPAFDNLYYWDQDPPERGAPPSTFKGTPTAENPEYLGLDVPAAAPTRSPNPVTRPWKHVDAIKEALSLLNDMRALENEKNEDVDIISNEFSIQRPTCVQTRLKLYKQGLRGNLTKLNGALTMIASHYQTNCPPTPETDCEIEVTTFEDFIKNLKGFLFDIPFDCWKPVQKGAPPPPAHHHHHH
On to B2, for which the “protection against tumor challenge / survival” value was “no protection” in experiment [3] and “protection” in experiment [4]. The “protection against tumor challenge / survival (prevention of in vivo tumor growth)” value in experiment [1] is “prevented tumor growth”.
